Assay results reported in patent US20160122421A1.
Ends that are not written are not given here.

Target: humanized variant of IPN002 (hu-IPN002)
Assay: competition ELISA; competitor: biotin-Tau 13-24 on hu-IPN002

## DHAGTYGLGDRK (also: biotinylated, position not given here, also used non-biotinylated) [Peptide 1 (Tau amino acids 13-24)]
  IC50 (read off the curve): 400 nM
